According to patent US20110076723A1, “ANTIBODY-PEPTIDE FUSED SYNERGIBODY” (SAMSUNG ELECTRONICS CO., LTD., priority 2008, published 2011):

T1: recombinant VEGFR-2 protein (water soluble extracellular site of human VEGFR-2 with Fc of human IgG1 connected thereto, R&D Systems) (human), P35968
T1 chain: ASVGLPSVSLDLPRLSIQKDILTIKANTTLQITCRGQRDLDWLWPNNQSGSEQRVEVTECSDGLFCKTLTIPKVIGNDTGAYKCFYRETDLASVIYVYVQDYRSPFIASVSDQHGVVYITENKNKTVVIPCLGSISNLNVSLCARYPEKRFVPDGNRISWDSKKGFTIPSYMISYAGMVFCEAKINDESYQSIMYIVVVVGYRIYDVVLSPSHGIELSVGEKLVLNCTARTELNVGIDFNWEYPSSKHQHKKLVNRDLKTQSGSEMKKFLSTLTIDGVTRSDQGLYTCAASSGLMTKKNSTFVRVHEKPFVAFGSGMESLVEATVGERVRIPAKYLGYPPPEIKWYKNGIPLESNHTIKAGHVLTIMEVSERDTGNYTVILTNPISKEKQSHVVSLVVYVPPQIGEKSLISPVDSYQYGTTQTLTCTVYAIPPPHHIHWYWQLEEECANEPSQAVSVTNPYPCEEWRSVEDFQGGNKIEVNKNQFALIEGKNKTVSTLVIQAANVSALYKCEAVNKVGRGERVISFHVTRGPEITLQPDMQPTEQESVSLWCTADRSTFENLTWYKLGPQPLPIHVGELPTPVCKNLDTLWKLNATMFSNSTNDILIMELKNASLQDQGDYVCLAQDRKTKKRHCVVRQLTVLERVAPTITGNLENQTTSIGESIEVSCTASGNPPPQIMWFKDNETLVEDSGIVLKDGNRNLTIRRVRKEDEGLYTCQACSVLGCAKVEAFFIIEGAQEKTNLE

T2: recombinant hAng-2 (Homo sapiens, UniProt O15123)
T2 construct: His tag; purchased R&D Systems
T2 sequence (O15123 19-496): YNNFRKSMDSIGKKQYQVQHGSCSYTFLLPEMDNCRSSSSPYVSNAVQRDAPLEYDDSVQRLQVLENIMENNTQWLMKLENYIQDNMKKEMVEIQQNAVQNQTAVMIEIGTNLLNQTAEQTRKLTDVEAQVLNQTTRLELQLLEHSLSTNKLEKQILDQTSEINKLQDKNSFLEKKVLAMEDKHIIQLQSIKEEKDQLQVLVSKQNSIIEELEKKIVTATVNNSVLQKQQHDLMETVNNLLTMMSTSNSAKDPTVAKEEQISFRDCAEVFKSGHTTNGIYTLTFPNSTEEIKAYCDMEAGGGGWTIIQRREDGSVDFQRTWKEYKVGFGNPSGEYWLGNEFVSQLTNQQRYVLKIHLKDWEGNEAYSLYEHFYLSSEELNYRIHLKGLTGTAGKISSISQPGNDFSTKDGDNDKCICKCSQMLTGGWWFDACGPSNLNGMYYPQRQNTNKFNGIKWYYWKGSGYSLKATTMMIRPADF

T3: recombinant hAng-2 (recombinant protein with His tag attached to human Ang-2; R&D Systems) (human, UniProt O15123 19-496)
T3 construct: also called angiopoietin-2; ANGPT2
T3 sequence (looked up): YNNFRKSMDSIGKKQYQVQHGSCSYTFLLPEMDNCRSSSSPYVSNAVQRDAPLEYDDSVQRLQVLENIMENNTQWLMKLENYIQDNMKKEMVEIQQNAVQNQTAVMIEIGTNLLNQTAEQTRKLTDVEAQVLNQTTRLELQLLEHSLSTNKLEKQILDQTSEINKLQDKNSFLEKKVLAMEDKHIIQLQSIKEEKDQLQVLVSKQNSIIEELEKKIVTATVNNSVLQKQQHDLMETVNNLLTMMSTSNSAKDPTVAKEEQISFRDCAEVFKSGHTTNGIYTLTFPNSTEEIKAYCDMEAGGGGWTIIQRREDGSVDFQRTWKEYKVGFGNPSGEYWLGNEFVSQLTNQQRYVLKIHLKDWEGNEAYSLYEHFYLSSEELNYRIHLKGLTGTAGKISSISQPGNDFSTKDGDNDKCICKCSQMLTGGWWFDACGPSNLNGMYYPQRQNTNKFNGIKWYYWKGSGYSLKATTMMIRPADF


Experiments:
[1] = target: T1, recombinant VEGFR-2 protein (water …); test: competitive ELISA; peptide titrated with 1 nM VEGFR-2 on coated VEGF 165
recombinant hAng-2 = target: T2, recombinant hAng-2; test: Affinity to Ang-2 antigen by surface plasmon resonance (BIAcore T100); type: binding; conditions: SPR, hAng-2 on CM5 chip
Method: (§1) The SPR method using BIAcore T100 (GE Healthcare) is used to accurately measure the affinity to the Ang-2 antigens. 20 μg/ml recombinant hAng-2 (R&D Systems) is fixed on a sensor chip CM5 (GE Healthcare) using pH4.5 acetate solution and amine coupling kit (GE Healthcare). The antibodies obtained in Section 2 above are diluted to eight different concentrations down to 0.78125 nM by diluting to ½ each time starting from 100 nM. Then the antigen/antibody affinity is measured by causing the antigens to repeatedly bind and disassociate with the antibodies fixed on the sensor chip (using pH2.2 glycine-HCl solution).

[2] = target: T3, recombinant hAng-2 (recombinant protein …); test: competitive ELISA; antibody titrated with 1 nM hAng-2 (His) on coated hTie2-Fc
Method: (§2) A competitive ELISA is performed to assess the molecular interaction of the binders. A 96-well MaxiSorp™ flat-bottom plate (Nunc) is coated with hTie2-Fc (R&D Systems), which is a fused protein including the water-soluble extracellular portion of human Tie-2 and Fc of human IgG₁ dissolved in DMEM culture solution containing 50 μg/ml bovine serum albumin (BSA). The concentration of hTie2-Fc used as a coating material is equivalent to 75% of its maximum binding concentration with 1 nM of recombinant hAng-2 (recombinant protein with His tag attached to human Ang-2; R&D Systems). Then the plate is washed five times with Phosphate Buffer Saline (PBS) containing 0.1% Tween-20 and blocked at room temperature for two hours with PBS containing 5% BSA. Each anti-Ang-2 antibodies are diluted from 100 nM by one-fourth each time with PBS containing 1% BSA and 1 nM hAng-2 and adjusted to 6.1 pM for Ang-2:Tie-2 neutralization ELISA. 100 μl of antibody/hAng-2 solutions are placed in each corresponding well and left to react at room temperature for two hours. Then the wells are washed five times with PBS containing 0.1% Tween-20, and the anti-His antibodies (GE Healthcare) are diluted to about 1:3,000 with PBS containing 1% BSA and left to react at room temperature for one hour. Afterwards, 100 μl of goat anti-mouse-IgG-HRP (Pierce) diluted with PBS containing 1% BSA to about 1:10,000 is added to each well of the plate, left to react at room temperature for one hour, and washed with PBS containing 0.1% Tween-20 five times. Lastly, 100 μl of TMB substrate (SIGMA) is added to each well of the plate to induce color reaction, and the reaction is stopped by adding 50 μl of 5N H₂SO₄ solution. The OD₄₅₀ value is read on a plate reader (Molecular Devices).

[3] = target: T3, recombinant hAng-2 (recombinant protein …); test: SPR, BIAcore T100; hAng-2 amine-coupled on CM5, antibody 100 to 0.78125 nM
Method: as §1

[4] = target: T4, recombinant VEGFR-2 protein (water soluble extracellular site of human VEGFR-2 with Fc of human IgG1 … (human, UniProt P35968 20-764)); test: competitive ELISA; synergibody titrated with 1 nM VEGFR-2 on coated VEGF 165
T4 construct: extracellular domain; Bought; not shown: Fc of human IgG1
Method: Competitive ELISA is performed using the peptides synthesized above in Section 6A in order to assess the molecular interaction of the binders. […] Then the plate is washed five times with PBS containing 0.1% Tween-20, and blocked at room temperature for two hours with PBS containing 5% BSA. For VEGF:VEGFR-2 neutralization ELISA, each of the peptides synthesized in Section 6A above are diluted to one-fourth each time from 100 nM with PBS containing 1 nM VEGFR-2 and 1% BSA, and adjusted to 6.1 pM. 100 μl of peptide/VEGFR-2 solution is added to each well and the plate is left to react at room temperature for two hours. Subsequently, it is washed five times with PBS containing 0.1% Tween-20, mouse anti-VEGFR-2 antibodies (R&D Systems) is diluted to about 1:3,000 with PBS containing 1% BSA, and left to react at room temperature for one hour. Then 100 μl of goat anti-mouse-IgG-HRP (Pierce) diluted to about 1:10,000 with PBS containing 1% BSA is added to each well of the plate, left to react at room temperature for one hour, and washed five times with PBS containing 0.1% Tween-20. Lastly, 100 μl of TMB substrate (SIGMA) is added to each well of the plate to induce color reaction. The reaction is stopped by adding 50 μl of 5N H₂SO₄ solution, and the OD₄₅₀ value is read on a plate reader (Molecular Devices). Through the foregoing, the IC₅₀ value for the VEGF:VEGFR-2 binding capacity is obtained.
The method in Example 2, Section 6B above is used, except that, in the present example, each fused protein synergibodies are diluted from 100 nM to one-fourth each time with PBS containing 1% BSA and 1nM VEGFR-2 and adjusted to 6.1 pM for VEGF:VEGF-2 neutralization ELISA.

[5] = target: T3, recombinant hAng-2 (recombinant protein …); test: competitive ELISA; synergibody titrated with 1 nM hAng-2 (His) on coated hTie2-Fc
Method: as §2
The method described in Example 1, Section 3 above is used, except that, in the present example, each fused protein synergibodies are diluted from 100 nM to one-fourth each time with PBS containing 1% BSA and 1 nM hAng-2 and adjusted to 6.1 pM for Ang-2:Tie-2 neutralization ELISA.

| Molecule | IC50 [1] | IC50 [4] | IC50 [5] | further results |
| --- | --- | --- | --- | --- |
| EAGAYWCKAWGLSPCLVT (modifications not checked) [DTN9VEGFR-2-3] | 61.9 nM |  |  |  |
| EAGKETCGYEWQYCPRP (modifications not checked) [DTN8VEGFR-2-2] | 49.5 nM |  |  |  |
| SAITAng-2-4 (antibody, V domains shown, Mouse monoclonal anti-Ang-2 antibody purified from hybridoma culture) VH: QVQLQQSGAELARPGASVKLSCKASGYTFTDYYINWAKQRTGQGLEWIGEIYPGSGDTYYNEKFKGKATLTADKSSSTAYMQLSSLTSEDSAVYFCARYGYKGVYFDYWGQSTTLTVSS VL: ENVLTQSPAIMAASLGQKVTMTCSASSSVSSSYLHWYQQKSGASPKPLIHRTSNLASGVPARFSGSGSGTSYSLTISSVEAEDDATYYCQQWSGYPFTFGAGTKLELK |  |  |  | Off Rate (recombinant hAng-2): 0.0004769 s⁻¹; On rate (recombinant hAng-2): 512100 M⁻¹ s⁻¹; IC50 [2]: 1.01 nM; Kd [3]: 0.931 nM; koff [3]: 0.000477 s⁻¹; kon [3]: 512000 M⁻¹ s⁻¹ |
| Syn-Ang-VEGFR-19 (other, Chimeric (human IgG1) SAITAng-2-4 with the peptide at the C-terminus of the heavy chain; also called SAITAng-2-4 x DTN10VEGFR-2-4; not shown: human IgG1 heavy chain constant region with Fc region, from the vector; human light chain constant region, printed as 'constant region of human IgG1') heavy (part 1 of 2): QVQLQQSGAELARPGASVKLSCKASGYTFTDYYINWAKQRTGQGLEWIGEIYPGSGDTYYNEKFKGKATLTADKSSSTAYMQLSSLTSEDSAVYFCARYGYKGVYFDYWGQSTTLTVSS heavy (part 2 of 2): TGSGRMCDGSGPPTNCWFT light: ENVLTQSPAIMAASLGQKVTMTCSASSSVSSSYLHWYQQKSGASPKPLIHRTSNLASGVPARFSGSGSGTSYSLTISSVEAEDDATYYCQQWSGYPFTFGAGTKLELK |  | 1.31 nM | 1.28 nM |  |
| Syn-Ang-VEGFR-20 (other, Chimeric (human IgG1) SAITAng-2-4 with the peptide at the C-terminus of the heavy chain; also called SAITAng-2-4 x DTN11VEGFR-2-5; not shown: human IgG1 heavy chain constant region with Fc region, from the vector; human light chain constant region, printed as 'constant region of human IgG1') heavy (part 1 of 2): QVQLQQSGAELARPGASVKLSCKASGYTFTDYYINWAKQRTGQGLEWIGEIYPGSGDTYYNEKFKGKATLTADKSSSTAYMQLSSLTSEDSAVYFCARYGYKGVYFDYWGQSTTLTVSS heavy (part 2 of 2): PGSQGYCHLNMRYQWICDSE light: ENVLTQSPAIMAASLGQKVTMTCSASSSVSSSYLHWYQQKSGASPKPLIHRTSNLASGVPARFSGSGSGTSYSLTISSVEAEDDATYYCQQWSGYPFTFGAGTKLELK |  | 1.38 nM | 1.35 nM |  |
